Experimental findings from article PMC6751697 are described below.

The test concerns the target fluorescein-labeled 16-mer Pogo Ligase peptide (FAM-PL). The test is described as follows: fluorescence polarisation.

recombinant (His)6-PCNA protein (proliferating cell nuclear antigen), sequence (P12004 whole entry): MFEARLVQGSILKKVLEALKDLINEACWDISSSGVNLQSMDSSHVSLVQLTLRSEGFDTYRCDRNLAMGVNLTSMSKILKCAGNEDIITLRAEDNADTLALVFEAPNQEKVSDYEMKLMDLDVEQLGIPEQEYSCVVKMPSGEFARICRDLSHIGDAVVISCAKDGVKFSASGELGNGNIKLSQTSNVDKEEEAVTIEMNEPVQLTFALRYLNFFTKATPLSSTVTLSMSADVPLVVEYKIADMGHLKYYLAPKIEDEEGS

As to “recombinant (His)6-PCNA protein (proliferating cell nuclear antigen) (from UniProt P12004 1-261) (natural protein)”, the percent of peptide bound (5 nM FAM-PL, 1 uM PCNA) was more than 80%.
